According to the DeepSol protein solubility set:

test: soluble on expression in E. coli; label from the status in PepcDB or PDB records

| Sequence | soluble on expression in E. coli |
| --- | --- |
| MEGTPNVPQAHRYELTLAGRPLVLETGKYAKQASGSVLVRYADTVVLATAQASETPVEADFLPLTVEFEERHYAVGKIPGSFMRREGRPGEKAILSARMTDRPIRPLFPKGFRHEVQIIVTVLSADQKNPPDILGPIAASAALMLSDIPWEGPIAAVRVGLIGGSFVLNPTLQELEESQLDLVVAGSKEAILMVEAEAGEVDEETLVQALEFAHKEMQPILELQEAMARELAKPKMAWTPPESLPEEEKEALYRLALERGLSQVLQTASKGERSRALAEFAERLIAEALPKGEDGTPDEGKKPLYESAFDEVVRRELRRLVLEEGKRADGRGPKDLRPIWIEVDVLPRAHGSAVFTRGETQVLGTVTLGTGRDEQILDDLGIDETEKFLVHYNFPPFSTGEVRRLRGVSRREVGHGNLAKRALKAVMPKEEDFPYTIRVVGDVLESNGSSSMATVCAGCLALMDAGVPIRAPVAGVAMGLVWEENRAVILTDILGLEDALGDMDFKVAGTRKGVTALQMDNKVGGLPREVLKEALLQAREARLKILDLMEAVLPAPRPELKPFAPRILSLKVPVEKIGLVIGPGGKNVRALEELGVEVDIEEDGTVRIYSSDLQAALEAKKRIEDLTREAKVGEIYEGTVTRITPFGAFISLFPGTEGLLHISQIAPGRVARVEDHLKVGDVIKVKVHRIDERGKIDLIRPELEGKIPPRRRR | soluble |
| MEHDLNDMMVFLAVVETGSFTLAADRLGMPKANVSRKVSRLEKNLAVTLLERSTRSQHLTEAGRRYLAHCKRIHEELDLATASVCELFHSYTGELKIGASVASGQQVLRPALGKFMRQYPDLKVQLNLVNRRVDFIEEGFDVVIRIGQLNDSMLIAKKLGAINRKIFASPSYLAKQGNPDKVEQLTEHQLLIMNPLNISGNKDLKLPLTSTDHETFTLDCQPRLLVDDFSMLKQAIVDGLGIGVLPDYMCRQEVASGQLVNILPDWGMAKVDIYALYPKHRAKIPKVKAFIDFVSELYGEVL | not soluble |
| MEHLSQDEVIRLASTPCSAPALKRAFLFSCLTALRKSDIKKLTWEEIQPYGSDGVMYVTTRMQKTKDIVHNPISEEALELIGYSPDKRGKVFPDFKDSMTQAPLKNWLKDAGITKHISYHCSRHSFACLQLDAGTSIAVVQRYLGHKNVATTEVYAKISDAQKRASVGLEHHHHHH | not soluble |
| MEHVAFGSEDIENTLAKMDDGQLDGLAFGAIQLDGDGNILQYNAAEGDITSRDPKQVIGKNFFKDVAPCTDSPEFYGKFKEGVASGNLNTMFEYTFDYQMTPTKVKVHMKKALSGDSYWVFVKRV | soluble |
| MEHYMNTLAETMQRYVEKHDLHNLEGIKQTAIEGVWFYRSSKGNNRQPFVYQSGIIVLGQGHKNIHIGQTPVQYGPDDYLVVGVPMPLECEAFATNNEPLLGISIDISPTLLHKLVKKLEAQKFSNICEDSKRCGLKSVRMNDAMLDACKRLMKALCNDLDVAILGESLLEEIVYRTLVSKEGYVLFELAHQEGSYARVAKALNRVHAEYHEQLNVQTLAEEANMSVSAFHQAFRSVTLESPLQYIKKVRLNKARDLIQLEGKRVNDAARLVGYSSPSQFSREYKRHFNETPRSTKA | not soluble |
| MEIERRLVLEVVRVTEQAALAASRFAGKGDKEAVDEAGTQAMRRVLNELPIRGTVVIGEGEMDEAPMLYIGEVLGQGGLEVDIAVDPVEGTTTVAKGLPNAVTVIALSEKGGLFHAPDMYMEKLIVPPSAVGLVDLTWPVSVNLRALALALQRSVEDLVVVVLEPPRHERLIREIRKAGAPVKLISDGDVIAALAAAIRGTGVHAVMGIGGAPEGVLTAAALKCLGGEIQARFVPQNEEERERLKAMGGDEHRIYKTEDLAPGKEIVFAATGITDGDILEGVRFFGGGARTHSIVMGHATRVVRFIDSIHLFETGARVTIRV | soluble |
| MEIKDTYNIGELSPGMTATFEGEVISALPIKEFKRADGSIGKLKSFIVRDETGSIRVTLWDNLTDIDVGRGDYVRVRGYIREGYYGGLECTANYVEILKKGEKIESLEHHHHHH | not soluble |
| MEIMLTYKTFKILGREILIGVVWEEKIQGIAYSLDGLEFLKDQLSRVTSHLKSRGVKVNLLEEKSRYPDLVFDVLKGKIGNEKGFEELSLEGLTRFEIKVYSWLVKNVKRGEVITYGKVAKALKTSPIAVGGAMKRNPYPIIVPCHRVVGKNNPWLYTPKPSYKKFLLEVEGWIS | soluble |
| MEIQFLGTGAGQPAKARNVSSLVLKLLDEINEVWMFDCGEGTQRQILETTIKPRKVKKIFITHMHGDHVFGLPGFLSSRAFQANEEQTDLDIYGPVGIKSFVMTALRTSGSRLPYRIHFHEFDESSLGKIMETDKFTVYAEKLDHTIFCMGYRVVQKDLEGTLDAEALKLAGVPFGPLFGKVKNGENVTLEDGREIIAKDYISEPKKGKVITILGDTRKTDASIRLALGADVLVHESTYGKGDERIAKSHGHSTNMQAADIAKQANAKRLLLNHVSARFMGRDCWQMEEDAKTIFSNTHLVRDLEEVGILEHHHHHH | soluble |
| MEITDVRLRRVETDGRMKAISSITIDGEFVIHDIRVIDGNEGLFVAMPSKRTPDGEFRDIAHPINSGTRAKIQEAVLAAYEVADEPAVNEESSADESVVEEN | not soluble |
| MEKAPLLLETVEQAVRILQESPFVAIWNYKVLSVQAGAVALALPAQPQFYRPGGIIQGGCLMTLADTAFWLAAMTELGIDAPIVTLEMKTHFLRAAQADVYCRAEVMKSGRRVTYGTATITDAAGQTLSHHTLTYLAA | not soluble |
| MEKEKKGAKHELDLSSILQFVAPGTPLRAGMENVLRANTGGLIVVGYNDKVKEVVDGGFHINTAFSPAHLYELAKMDGAIILSDSGQKILYANTQLMPDATISSSETGMRHRTAERVAKQTGCLVIAISERRNVITLYQENMKY | not soluble |
| MEKILEKIEEFFGFIPEIFKVLEDEPEILEAYYDKMEKILSNDALPLVTKELIGVGAAAALGSEHCLKTHIKAAKRLDAGGDEILLAILIGASMAESTALSRSLRVFKEERMDL | not soluble |
| MEKLAAKVLENFDFLKKLLRDRAECGESEITIYDDPVTIVVKRDRIDFFINEEYHGSVGVGFNTLSDEIREEARLWLEGLAGMKFKRYAVRR | not soluble |
| MEKLAIGVDVGTTQAKAVAFQANGTVVASSYVRYPLIQETEGMAEQDPETLFQAVVNCIRTVTQQVKNQPIGLISFASAMHGLIAMDAQGRPLTQVITWADTRASDYAEALKETPAAQLFYQLTGMPVHPMAPLYKIRWLQENQPAVAQSAAKFIGIKDYIFYRFFGEYWTDYSSASGMGLFNIHTRQWETSILAYLSIEEEQLPKVAPSTFIFPALAPSWQEMLGVEEETVLVLGGADGPLSNLGLGALGMGVATLTVGTSGALRYIVEEPFLHPQGETFCFALDEQHWVIGGASSNGAVALDWASQTIFAEERQQAIQNGTNLYDPIMAKIATVPAGANGLLFHPYLLGERAPLWNAEASASFIGLRKNHHAGHLARAVVEGICFNLKTILEDLKQLGGPVQEIRATGGFADSPVFRQIMADVLGETLSFTDSTEASALGAVLLGWQGLGQLPNLQAAAQQVLIHETVTPRADQLLVYQELYPVFQETQQVLAQSYQKLAEFRK | not soluble |
| MEKLLSELAELGARQKFNGEIDFGAEIASDSLLEVMKIVGSEELSQQVLEGFLEQAPTIHQVLLGMTFASYLQSTTSGEASPGAQELSEPLKKARRSIRLLLNLTQRSPDFASRISSESVELLETLLATGSFDVECLIILLKTSQATWLEFQKSPRYSALLQRVLSKYSPDFSENSTILAYFSVLFEMDYGFLSMCYAEMDAPTFCEILDVLRVILTRKTLKIHSNNLLFVLNLLELVVVDYEAFWRARERKEPQSVEQRRVATVEILNLEVEIVGEMCSNTEMTSYLNEKATAMNSVVDVLDAVSIFRNKISIFLDFFQILHAEALFADFRAEQPSDWPKIESEHPRFEVLKRKIEEERRYEETQRRYPDRPRQPLPPKIQRVESSESLSLLANTIFSKYRSIDDVIGVPRVGELKLNCLKAIANLANLSDSNKLATLQNGRQGLISVLQCTTRRPEYFLESFTMRNQSIFCVRQLTDGCQENKEVVFNLQQPNQPIIDRKRLLEELGVHVDN | not soluble |
| MEKLVAYKRMPLWNKQTMPEAVQQKHNTKVGTWGKITVLKGALKFIELTEEGEVLAEHLFEAGADNPMAQPQAWHRVEAATDDVEWYLEFYCKPEDYFAKKYNTNPVHSEVLEAMQTVKQGKALDLGCGQGRNSLFLAQQDFDVTAVDQNGLALEILQSIVEQEDLDMPVGLYDINSASIEQEYDFIVSTVVLMFLQADRIPAIIQNMQEKTSVGGYNLIVCAMDTEDYPCSVNFPFTFKEGELADYYKDWELVKYNENPGHLHRRDENGNRIQLRFATLLAKKIK | not soluble |
